Data reported in article PMC9482650, “Quantitative fragmentomics allow affinity mapping of interactomes” (Nature Communications, 2022).

Experiments:
Assay in all cases: holdup assay
Set-up in all cases: key: below the threshold = too weak to quantify, mostly under pKd 3.1 to 4
FRMPD2_2, Q68DX3 = biological target: FRMPD2_2, Q68DX3
TIAM2, Q8IVF5 = biological target: T1, TIAM2, Q8IVF5
T1 sequence (Q8IVF5 885-986, limits assumed, looked up): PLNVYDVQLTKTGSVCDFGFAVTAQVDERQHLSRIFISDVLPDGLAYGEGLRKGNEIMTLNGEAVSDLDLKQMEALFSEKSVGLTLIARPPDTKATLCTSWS

LNX2_2, Q8N448 = biological target: T2, LNX2_2, Q8N448
T2 sequence (Q8N448 334-432, limits assumed, looked up): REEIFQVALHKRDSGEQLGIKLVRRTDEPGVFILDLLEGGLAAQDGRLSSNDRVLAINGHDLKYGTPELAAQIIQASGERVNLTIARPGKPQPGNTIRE

SCRIB_2, Q14160 = biological target: SCRIB_2, Q14160
Sequence of SCRIB_2, Q14160 (Q14160 857-960): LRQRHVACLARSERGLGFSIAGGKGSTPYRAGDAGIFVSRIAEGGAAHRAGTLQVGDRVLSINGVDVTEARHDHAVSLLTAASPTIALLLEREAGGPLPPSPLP

TJP1_2, Q07157 = biological target: TJP1_2, Q07157
Sequence of TJP1_2, Q07157 (Q07157 181-274): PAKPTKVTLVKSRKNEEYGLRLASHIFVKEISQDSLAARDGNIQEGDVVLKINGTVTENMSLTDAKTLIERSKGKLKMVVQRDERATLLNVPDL

FRMPD2_1, Q68DX3 = biological target: FRMPD2_1, Q68DX3
Sequence of FRMPD2_1, Q68DX3 (Q68DX3 770-861): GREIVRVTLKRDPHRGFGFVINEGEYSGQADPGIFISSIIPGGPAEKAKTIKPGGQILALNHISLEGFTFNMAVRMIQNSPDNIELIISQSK

PARD3_3, Q8TEW0 = biological target: PARD3_3, Q8TEW0
Sequence of PARD3_3, Q8TEW0 (Q8TEW0 582-685): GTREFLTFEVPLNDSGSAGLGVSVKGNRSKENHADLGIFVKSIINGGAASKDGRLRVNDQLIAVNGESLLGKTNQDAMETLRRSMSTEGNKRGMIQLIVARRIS

DLG4_2, P78352 = biological target: DLG4_2, P78352
Sequence of DLG4_2, P78352 (P78352 155-259): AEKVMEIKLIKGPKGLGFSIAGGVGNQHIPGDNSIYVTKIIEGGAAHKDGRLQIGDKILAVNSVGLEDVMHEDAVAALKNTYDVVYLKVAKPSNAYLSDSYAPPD

GRID2IP_1, A4D2P6 = biological target: GRID2IP_1, A4D2P6
Sequence of GRID2IP_1, A4D2P6 (A4D2P6 1-87): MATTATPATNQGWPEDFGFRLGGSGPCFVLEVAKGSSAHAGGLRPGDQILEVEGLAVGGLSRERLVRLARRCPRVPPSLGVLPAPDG

SNTG2, Q9NY99 = biological target: T3, SNTG2, Q9NY99
T3 sequence (Q9NY99 68-166, limits assumed, looked up): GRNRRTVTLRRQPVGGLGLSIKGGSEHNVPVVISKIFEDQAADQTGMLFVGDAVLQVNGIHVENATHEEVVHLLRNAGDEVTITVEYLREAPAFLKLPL

NOS1, P29475 = biological target: NOS1, P29475
Sequence of NOS1, P29475 (P29475 9-101): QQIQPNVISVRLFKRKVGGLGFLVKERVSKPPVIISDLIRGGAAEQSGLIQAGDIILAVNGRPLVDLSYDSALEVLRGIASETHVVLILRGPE

DLG5_1, Q8TDM6 = biological target: DLG5_1, Q8TDM6
Sequence of DLG5_1, Q8TDM6 (Q8TDM6 617-713): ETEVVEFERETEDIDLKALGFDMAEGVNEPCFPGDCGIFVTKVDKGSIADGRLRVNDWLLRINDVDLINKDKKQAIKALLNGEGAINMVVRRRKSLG

MAGI2_3, Q86UL8 = biological target: MAGI2_3, Q86UL8
Sequence of MAGI2_3, Q86UL8 (Q86UL8 600-682): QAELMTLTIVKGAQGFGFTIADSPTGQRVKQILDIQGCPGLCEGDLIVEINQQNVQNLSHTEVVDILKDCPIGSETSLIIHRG

GRIP1_5, Q9Y3R0 = biological target: T4, GRIP1_5, Q9Y3R0
T4 sequence (Q9Y3R0 568-668, limits assumed, looked up): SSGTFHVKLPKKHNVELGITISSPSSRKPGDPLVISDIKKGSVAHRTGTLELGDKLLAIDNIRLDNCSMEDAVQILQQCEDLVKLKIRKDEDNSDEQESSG

SNTG1, Q9NSN8 = biological target: T5, SNTG1, Q9NSN8
T5 sequence (Q9NSN8 52-150, limits assumed, looked up): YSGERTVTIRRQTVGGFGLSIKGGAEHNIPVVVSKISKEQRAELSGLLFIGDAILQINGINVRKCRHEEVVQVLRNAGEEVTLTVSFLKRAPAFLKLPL

SNX27, Q96L92 = biological target: SNX27, Q96L92
MAGI2_2, Q86UL8 = biological target: MAGI2_2, Q86UL8
Sequence of MAGI2_2, Q86UL8 (Q86UL8 410-522): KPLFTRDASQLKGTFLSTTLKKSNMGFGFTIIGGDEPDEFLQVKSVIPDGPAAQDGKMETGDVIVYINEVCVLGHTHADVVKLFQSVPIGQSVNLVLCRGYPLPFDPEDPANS

MPDZ_12, O75970 = biological target: T6, MPDZ_12, O75970
T6 sequence (O75970 1857-1958, limits assumed, looked up): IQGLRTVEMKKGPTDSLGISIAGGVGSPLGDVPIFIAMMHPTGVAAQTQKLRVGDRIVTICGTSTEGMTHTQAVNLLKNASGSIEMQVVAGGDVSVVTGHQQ

GRID2IP_2, A4D2P6 = biological target: GRID2IP_2, A4D2P6
Sequence of GRID2IP_2, A4D2P6 (A4D2P6 272-370): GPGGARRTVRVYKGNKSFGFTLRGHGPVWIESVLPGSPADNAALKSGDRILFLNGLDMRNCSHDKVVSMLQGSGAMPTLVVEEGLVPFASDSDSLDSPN

SYNJ2BP, P57105 = biological target: T7, SYNJ2BP, P57105
T7 sequence (P57105 8-110, limits assumed, looked up): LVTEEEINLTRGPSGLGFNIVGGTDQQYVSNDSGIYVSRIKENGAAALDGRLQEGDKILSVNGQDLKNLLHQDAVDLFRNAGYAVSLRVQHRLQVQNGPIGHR

DLG4_3, P78352 = biological target: DLG4_3, P78352
Sequence of DLG4_3, P78352 (P78352 306-403): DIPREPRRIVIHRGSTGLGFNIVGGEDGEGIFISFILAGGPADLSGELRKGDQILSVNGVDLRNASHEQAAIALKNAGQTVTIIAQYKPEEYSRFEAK

LDB3, O75112 = biological target: LDB3, O75112
Sequence of LDB3, O75112 (O75112 1-94): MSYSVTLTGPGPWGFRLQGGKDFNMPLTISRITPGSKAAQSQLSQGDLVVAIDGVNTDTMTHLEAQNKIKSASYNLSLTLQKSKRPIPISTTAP

TX1BP3, O14907 = biological target: T8, TX1BP3, O14907
T8 sequence (O14907 10-122, limits assumed, looked up): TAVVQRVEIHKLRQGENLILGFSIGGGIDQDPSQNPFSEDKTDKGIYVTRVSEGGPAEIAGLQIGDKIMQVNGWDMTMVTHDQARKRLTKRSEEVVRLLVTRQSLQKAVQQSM

MAGI3_2, Q5TCQ9 = biological target: MAGI3_2, Q5TCQ9
Sequence of MAGI3_2, Q5TCQ9 (Q5TCQ9 398-503): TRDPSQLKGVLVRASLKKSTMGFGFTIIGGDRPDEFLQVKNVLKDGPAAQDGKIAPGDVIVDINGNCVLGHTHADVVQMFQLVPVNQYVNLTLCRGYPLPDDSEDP

PDZRN3_1, Q9UPQ7 = biological target: T9, PDZRN3_1, Q9UPQ7
T9 sequence (Q9UPQ7 244-349, limits assumed, looked up): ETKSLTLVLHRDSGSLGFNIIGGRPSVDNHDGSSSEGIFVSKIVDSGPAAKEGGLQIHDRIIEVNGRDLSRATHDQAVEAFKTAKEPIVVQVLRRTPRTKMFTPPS

MAGI2_5, Q86UL8 = biological target: MAGI2_5, Q86UL8
Sequence of MAGI2_5, Q86UL8 (Q86UL8 915-1017): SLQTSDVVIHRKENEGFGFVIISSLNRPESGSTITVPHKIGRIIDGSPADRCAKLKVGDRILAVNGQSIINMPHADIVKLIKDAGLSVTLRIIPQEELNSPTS

IL16_1, Q14005 = biological target: IL16_1, Q14005
Sequence of IL16_1, Q14005 (Q14005 210-306): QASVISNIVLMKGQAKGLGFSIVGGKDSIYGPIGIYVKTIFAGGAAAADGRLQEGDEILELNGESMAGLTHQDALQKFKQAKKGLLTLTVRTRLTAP

NHERF3_4, Q5T2W1 = biological target: T10, NHERF3_4, Q5T2W1
T10 sequence (Q5T2W1 373-468, limits assumed, looked up): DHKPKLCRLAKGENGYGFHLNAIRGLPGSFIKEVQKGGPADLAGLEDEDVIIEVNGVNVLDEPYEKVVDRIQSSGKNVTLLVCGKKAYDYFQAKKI

[1] = plain residues with an end cap or a label only (N-terminal biotin on a linker: ado-ado)
[2] = plain residues with an end cap or a label only (N-terminal biotin on a linker: none)

Sequence of FRMPD2_2, Q68DX3 (Q68DX3 944-1038): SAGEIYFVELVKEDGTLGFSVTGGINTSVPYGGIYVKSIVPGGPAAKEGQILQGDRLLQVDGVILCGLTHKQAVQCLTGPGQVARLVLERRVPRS

B1: NCBP2L, A6PVI3 (peptide)
chain: RGGFGRQTQI
pKd (FRMPD2_2, Q68DX3; [1]): below the threshold | pKd (TIAM2, Q8IVF5; [1]): 4.02 | pKd (LNX2_2, Q8N448; [1]): below the threshold | pKd (SCRIB_2, Q14160; [1]): below the threshold | pKd (TJP1_2, Q07157; [1]): below the threshold | pKd (FRMPD2_1, Q68DX3; [1]): below the threshold | pKd (PARD3_3, Q8TEW0; [1]): below the threshold | pKd (DLG4_2, P78352; [1]): 4.64 | pKd (GRID2IP_1, A4D2P6; [1]): below the threshold | pKd (SNTG2, Q9NY99; [1]): 3.52 | pKd (NOS1, P29475; [1]): 4.08 | pKd (DLG5_1, Q8TDM6; [1]): below the threshold | pKd (MAGI2_3, Q86UL8; [1]): 3.51 | pKd (GRIP1_5, Q9Y3R0; [1]): below the threshold | pKd (SNTG1, Q9NSN8; [1]): below the threshold | pKd (SNX27, Q96L92; [1]): below the threshold | pKd (MAGI2_2, Q86UL8; [1]): 4.48 | pKd (MPDZ_12, O75970; [1]): 3.76 | pKd (GRID2IP_2, A4D2P6; [1]): 4.05 | pKd (SYNJ2BP, P57105; [1]): 4.18 | pKd (DLG4_3, P78352; [1]): 4.17 | pKd (LDB3, O75112; [1]): 3.66 | pKd (TX1BP3, O14907; [1]): 4.4 | pKd (MAGI3_2, Q5TCQ9; [1]): 4.79 | pKd (PDZRN3_1, Q9UPQ7; [1]): 3.74 | pKd (MAGI2_5, Q86UL8; [1]): below the threshold | pKd (IL16_1, Q14005; [1]): below the threshold | pKd (NHERF3_4, Q5T2W1; [1]): below the threshold

B2: MERS-E, K9N5R3 (peptide)
chain: DSKPPLPPDEWV
pKd (FRMPD2_2, Q68DX3; [2]): below the threshold | pKd (TIAM2, Q8IVF5; [2]): below the threshold | pKd (LNX2_2, Q8N448; [2]): 4.44 | pKd (SCRIB_2, Q14160; [2]): 3.58 | pKd (TJP1_2, Q07157; [2]): 4.16 | pKd (FRMPD2_1, Q68DX3; [2]): below the threshold | pKd (PARD3_3, Q8TEW0; [2]): 4.07 | pKd (DLG4_2, P78352; [2]): 3.59 | pKd (GRID2IP_1, A4D2P6; [2]): 3.57 | pKd (SNTG2, Q9NY99; [2]): 3.59 | pKd (NOS1, P29475; [2]): 3.99 | pKd (DLG5_1, Q8TDM6; [2]): below the threshold | pKd (MAGI2_3, Q86UL8; [2]): below the threshold | pKd (GRIP1_5, Q9Y3R0; [2]): 3.68 | pKd (SNTG1, Q9NSN8; [2]): 3.87 | pKd (SNX27, Q96L92; [2]): 4.56 | pKd (MAGI2_2, Q86UL8; [2]): below the threshold | pKd (MPDZ_12, O75970; [2]): below the threshold | pKd (GRID2IP_2, A4D2P6; [2]): 3.53 | pKd (SYNJ2BP, P57105; [2]): 3.73 | pKd (DLG4_3, P78352; [2]): 3.64 | pKd (LDB3, O75112; [2]): below the threshold | pKd (TX1BP3, O14907; [2]): 3.7 | pKd (MAGI3_2, Q5TCQ9; [2]): below the threshold | pKd (PDZRN3_1, Q9UPQ7; [2]): below the threshold | pKd (MAGI2_5, Q86UL8; [2]): below the threshold | pKd (IL16_1, Q14005; [2]): 3.64 | pKd (NHERF3_4, Q5T2W1; [2]): below the threshold

B3: NRXN3_rs746444206, Q9Y4C0 (peptide)
chain: QKNKDKEYYV
pKd (FRMPD2_2, Q68DX3; [1]): 3.62 | pKd (TIAM2, Q8IVF5; [1]): 4.34 | pKd (LNX2_2, Q8N448; [1]): 4.7 | pKd (SCRIB_2, Q14160; [1]): below the threshold | pKd (TJP1_2, Q07157; [1]): below the threshold | pKd (FRMPD2_1, Q68DX3; [1]): 3.69 | pKd (PARD3_3, Q8TEW0; [1]): 4.48 | pKd (DLG4_2, P78352; [1]): 3.56 | pKd (GRID2IP_1, A4D2P6; [1]): below the threshold | pKd (SNTG2, Q9NY99; [1]): below the threshold | pKd (NOS1, P29475; [1]): 3.88 | pKd (DLG5_1, Q8TDM6; [1]): below the threshold | pKd (MAGI2_3, Q86UL8; [1]): below the threshold | pKd (GRIP1_5, Q9Y3R0; [1]): below the threshold | pKd (SNTG1, Q9NSN8; [1]): 3.53 | pKd (SNX27, Q96L92; [1]): below the threshold | pKd (MAGI2_2, Q86UL8; [1]): 4.02 | pKd (MPDZ_12, O75970; [1]): below the threshold | pKd (GRID2IP_2, A4D2P6; [1]): below the threshold | pKd (SYNJ2BP, P57105; [1]): below the threshold | pKd (DLG4_3, P78352; [1]): below the threshold | pKd (LDB3, O75112; [1]): below the threshold | pKd (TX1BP3, O14907; [1]): below the threshold | pKd (MAGI3_2, Q5TCQ9; [1]): 4.63 | pKd (PDZRN3_1, Q9UPQ7; [1]): below the threshold | pKd (MAGI2_5, Q86UL8; [1]): below the threshold | pKd (IL16_1, Q14005; [1]): below the threshold | pKd (NHERF3_4, Q5T2W1; [1]): below the threshold
